Data reported in patent US20180155451A1 (published 2018).
Residue numbers refer to the chain shown, from its start.

T1: FcγRIIa H type extracellular domain with C-terminal His tag (human, UniProt P12318 34-217)
T1 construct: extracellular domain; also called FcgRIIa H; FcgRIIaH; not shown: His tag at the C terminus
T1 sequence (looked up): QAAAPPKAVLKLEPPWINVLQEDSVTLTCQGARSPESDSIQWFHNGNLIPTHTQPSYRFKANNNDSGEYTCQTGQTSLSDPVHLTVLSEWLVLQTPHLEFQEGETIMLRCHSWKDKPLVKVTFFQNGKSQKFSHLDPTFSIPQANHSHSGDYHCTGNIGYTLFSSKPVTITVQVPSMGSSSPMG

T2: FcγRIIb extracellular domain with C-terminal His tag (human, UniProt P31994 43-217)
T2 construct: extracellular domain; also called FcgRIIb; 2b; not shown: His tag at the C terminus
T2 sequence (looked up): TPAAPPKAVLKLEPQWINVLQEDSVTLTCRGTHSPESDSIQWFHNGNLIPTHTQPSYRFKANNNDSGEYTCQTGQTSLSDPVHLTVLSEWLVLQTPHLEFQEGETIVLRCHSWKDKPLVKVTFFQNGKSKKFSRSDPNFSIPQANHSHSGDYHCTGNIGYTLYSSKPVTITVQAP

T3: FcγRIIa R type extracellular domain with C-terminal His tag (human, UniProt P12318 34-217)
T3 construct: extracellular domain; also called FcgRIIa R; FcgRIIaR; not shown: His tag at the C terminus
T3 sequence (looked up): T1 sequence (looked up) with H134R

B1: H240-FA009/H240-FB052/L73-k0 (antibody, human IgG1, kappa)
heavy 1: QDQLVQSGAEVKKPGASVKVSCKASGFNIKDTYIQWVRQAPGQGLEWMGRIDPLRKQTKYREKFEGRVTITADTSTNTAYMELSSLRSEDTAVYYCVRSGREFDYWGQGTLVTVSSASTKGPSVFPLAPSSKSTSGGTAALGCLVKDYFPEPVTVSWNSGALTSGVHTFPAVLQSSGLYSLSSVVTVPSSSLGTKTYICNVNHKPSNTKVDKKVEPKSCDKTHTCPPCPAPEYYWGPSVFLFPPKPKDTLMISRTPEVTCVVVDVSDEEPEVKFNWYVDGVEVHNAKTKPREEQYNATYRVVSVLTVLHQDWLNGKEYKCKVSNKALPAPIEKTISKAKGQPREPQVYTLPPSRKEMTKNQVSLTCLVKGFYPSDIAVEWESNGQPENNYKTTPPVLDSDGSFFLYSKLTVDKSRWQQGNVFSCSVMHEALHNRYTQKSLSLSP
heavy 2: QDQLVQSGAEVKKPGASVKVSCKASGFNIKDTYIQWVRQAPGQGLEWMGRIDPLRKQTKYREKFEGRVTITADTSTNTAYMELSSLRSEDTAVYYCVRSGREFDYWGQGTLVTVSSASTKGPSVFPLAPSSKSTSGGTAALGCLVKDYFPEPVTVSWNSGALTSGVHTFPAVLQSSGLYSLSSVVTVPSSSLGTQTYICNVNHKPSNTKVDKTVEPKSCDKTHTCPPCPAPELLGGPSVFLFPPKPKDTLMISRTPEVTCVVVDVSHEEPEVQFNWYVDGVEVHNAKTKPREEQYNSTYRVVSVLTVLHQDWLNGKEYKCKVSNDALPMPIEETISKAKGQPREPQVYTLPPSREEMTKNQVSLTCLVKGFYPSDIAVEWESNGQPENNYKTTPPVLDSDGSFFLYSKLTVDKSRWQQGNVFSCSVMHEALHNHYTQESLSLSP
light: DIQMTQSPSSLSASVGDRVTITCRASQDIHKYIAWYQQKPGQAPRLLIQYTSTLQPGVPSRFSGSGSGTDYTFTISSLQPEDIATYYCLQYEQLRTFGGGTKVEIKRTVAAPSVFIFPPSDEQLKSGTASVVCLLNNFYPREAKVQWKVDNALQSGNSQESVTEQDSKDSTYSLSSTLTLSKADYEKHKVYACEVTHQGLSSPVTKSFNRGEC
notes: Heterodimerized anti-EREG IgG1 antibody; A chain altered from H240-AK072, B chain altered from H240-BH076
B2: H240-FA012/H240-FB001/L73-k0 (antibody, human IgG1, kappa)
heavy 1: B1 heavy 1 with E271K
heavy 2: B1 heavy 2 with T213K
light: B1 light
notes: as for B1
B3: H240-FA030/H240-FB001/L73-k0 (antibody, human IgG1, kappa)
heavy 1: B1 heavy 1 with I198T, E271K
heavy 2: B1 heavy 2 with T213K
light: B1 light
notes: as for B1
B4: H240-FA024/H240-FB001/L73-k0 (antibody, human IgG1, kappa)
heavy 1: B1 heavy 1 with I198T, E271K, M357K
heavy 2: B1 heavy 2 with T213K
light: B1 light
notes: as for B1
B5: GpH7-A5/GpH7-HA5/GpL16-k0 (antibody, human IgG1, kappa)
heavy 1: not shown
heavy 2: QVQLVQSGAEVKKPGASVTVSCKASGYTFTDYEMHWIRQPPGEGLEWIGAIDPKTGDTAYSESFQDRVTLTADKSTSTAYMELSSLTSEDTAVYYCTRFYSYTYWGQGTLVTVSSASTKGPSVFPLAPSSKSTSGGTAALGCLVKDYFPEPVTVSWNSGALTSGVHTFPAVLQSSGLYSLSSVVTVPSSSLGTQTYICNVNHKPSNTKVDKKVEPKSCDKTHTCPPCPAPEYLGGPSVFLFPPKPKDTLMISRTPEVTCVVVDVSHEDPEVKFNWYVDGVEVHNAKTKPREEQYNSTYRVVSVLTVLHQDWLNGKEYKCKVSNKALRAPIEKTISKAKGQPREPQVYTLPPSRDELTKNQVSLTCLVKGFYPSDIAVEWESNGQPENNYKTTPPVLDSDGSFFLYSKLTVDKSRWQQGNVFSCSVMHEALHNHYTQESLSLSP
light: DIVMTQSPLSLPVTPGEPASISCQASESLVHSNRNTYLHWYLQKPGQSPQLLIYKVSNRFSGVPDRFSGSGSGTDFTLKISRVEAEDVGVYYCSQNTHVPPTFGQGTKVEIERTVAAPSVFIFPPSDEQLKSGTASVVCLLNNFYPREAKVQWKVDNALQSGNSQESVTEQDSKDSTYSLSSTLTLSKADYEKHKVYACEVTHQGLSSPVTKSFNRGEC
notes: Heterodimerized anti-glypican-3 IgG1 variant
B6: GpH7-A5/GpH7-HA18/GpL16-k0 (antibody, human IgG1, kappa)
heavy 1: not shown
heavy 2: B5 heavy 2 with Y232L, I330E
light: B5 light
notes: as for B5
B7: GpH7-A5/GpH7-HA11/GpL16-k0 (antibody, human IgG1, kappa)
heavy 1: not shown
heavy 2: B5 heavy 2 with Y232L, S296A
light: B5 light
notes: as for B5
B8: GpH7-A5/GpH7-HA15/GpL16-k0 (antibody, human IgG1, kappa)
heavy 1: not shown
heavy 2: B5 heavy 2 with Y232L, A328L
light: B5 light
notes: as for B5
B9: GpH7-A5/GpH7-HA7/GpL16-k0 (antibody, human IgG1, kappa)
heavy 1: not shown
heavy 2: B5 heavy 2 with Y232L, S237D
light: B5 light
notes: as for B5
B10: GpH7-A5/GpH7-HA6/GpL16-k0 (antibody, human IgG1, kappa)
heavy 1: not shown
heavy 2: B5 heavy 2 with Y232L, G234W
light: B5 light
notes: as for B5
B11: GpH7-A48/GpH7-B3-06-09D/GpL16-k0 (antibody, human IgG1, kappa)
heavy 1: B5 heavy 2 with Y232L, D354K, H433R, E437K
heavy 2: not shown
light: B5 light
notes: as for B5
B12: GpH7-A48/GpH7-B3-03-20W/GpL16-k0 (antibody, human IgG1, kappa)
heavy 1: B5 heavy 2 with Y232L, D354K, H433R, E437K
heavy 2: not shown
light: B5 light
notes: as for B5
B13: GpH7-A48/GpH7-B3-15-02A/GpL16-k0 (antibody, human IgG1, kappa)
heavy 1: B5 heavy 2 with Y232L, D354K, H433R, E437K
heavy 2: not shown
light: B5 light
notes: as for B5
B14: GpH7-A48/GpH7-B3-20-08L/GpL16-k0 (antibody, human IgG1, kappa)
heavy 1: B5 heavy 2 with Y232L, D354K, H433R, E437K
heavy 2: not shown
light: B5 light
notes: as for B5
B15: GpH7-A48/GpH7-B3-01-15Y/GpL16-k0 (antibody, human IgG1, kappa)
heavy 1: B5 heavy 2 with Y232L, D354K, H433R, E437K
heavy 2: not shown
light: B5 light
notes: as for B5

biological target: T1, FcγRIIa H type extracellular domain …; assay: SPR (Biacore), antibody captured on chip, soluble FcgR as analyte; experiment 2
Method: (§1) Antibodies of interest were analyzed for the interaction to FcgR according to the method described in Reference Example 8.
(§2) Analysis of interaction between obj ective antibody and the FcγR was carried out using Biacore T100 (GE Healthcare), Biacore T200, Biacore A100, and Biacore 4000. HBS-EP+ (GE Healthcare) was used as the running buffer, and the measurement temperature was set to 25° C. Chips produced by immobilizing the antigen peptide by the amine coupling method to a Series S sensor Chip CM5 (GE Healthcare), chips produced by allowing preliminarily biotinylated antigen peptides to interact with and immobilize onto a Series S Sensor Chip SA (certified) (GE Healthcare), chips produced by immobilizing Protein L (ACTIGEN, BioVision) to Series S Sencor Chip CM5 (GE Healthcare), or chips produced by immobilizing Protein A/G (Thermo Scientific) to Series S Sencor Chip CM5 (GE Healthcare) were used. Antibodies of interest were captured onto these chips, and allowed to interact to each FcγR diluted with running buffer. To regenerate and repeatedly use the chip, the antibodies captured onto the chip were washed off by reacting 10 mM glycine-HCl, pH 1.5.

Kd [nM] | Binder
72 | B1
110 | B2
120 | B3
110 | B4

biological target: T4, FcγRIIIa V type extracellular domain with C-terminal His tag (human, UniProt P08637 17-208); assay: as above
T4 construct: extracellular domain; also called FcgRIIIa V; FcgRIIIaV; not shown: His tag at the C terminus
T4 sequence (P08637 17-208 F176V): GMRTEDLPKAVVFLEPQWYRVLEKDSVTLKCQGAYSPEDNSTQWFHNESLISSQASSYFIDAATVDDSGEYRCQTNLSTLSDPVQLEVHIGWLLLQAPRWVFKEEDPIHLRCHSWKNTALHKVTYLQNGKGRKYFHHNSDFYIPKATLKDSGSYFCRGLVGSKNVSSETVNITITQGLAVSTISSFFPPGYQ
Method: as §1, §2

Kd [nM] | Binder
0.89 | B1
1.5 | B2
1.7 | B3
1.9 | B4

biological target: T5, FcγRIIIa F type extracellular domain with C-terminal His tag (human, UniProt P08637 17-208); assay: as above
T5 construct: extracellular domain; also called FcgRIIIa F; FcgRIIIaF; not shown: His tag at the C terminus
T5 sequence (P08637 17-208): as the sequence (P08637 17-208 F176V) above, with V160F counted along it
Method: as §1, §2

Kd [nM] | Binder
4.3 | B1
6.3 | B2
6.4 | B3
6.7 | B4

biological target: T2, FcγRIIb extracellular domain with …; assay: as above
Method: as §1, §2

Kd [nM] | Binder
1400 | B1
1700 | B2
3300 | B3
2000 | B4

biological target: T3, FcγRIIa R type extracellular domain …; assay: as above
Method: as §1, §2

Kd [nM] | Binder
270 | B1
350 | B2
440 | B3
370 | B4

biological target: T6, FcγRIa extracellular domain with C-terminal His tag (human, UniProt P12314 16-292); assay: as above
T6 construct: extracellular domain; also called FcgRI; FcgRIa; not shown: His tag at the C terminus
T6 sequence (P12314 16-292): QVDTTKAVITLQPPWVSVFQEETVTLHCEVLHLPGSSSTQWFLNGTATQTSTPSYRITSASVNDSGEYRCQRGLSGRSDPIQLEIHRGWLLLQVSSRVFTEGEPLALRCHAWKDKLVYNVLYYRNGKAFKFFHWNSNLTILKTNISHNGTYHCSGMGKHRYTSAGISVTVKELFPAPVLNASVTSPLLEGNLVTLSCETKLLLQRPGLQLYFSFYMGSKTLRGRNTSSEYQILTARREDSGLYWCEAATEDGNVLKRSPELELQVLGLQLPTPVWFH
Method: as §1, §2

Kd [nM] | Binder
0.051 | B1
0.076 | B2
0.036 | B3
1.8 | B4

biological target: T7, FcγRIIIa extracellular domain with C-terminal His tag (human, UniProt P08637 17-208); assay: SPR (Biacore), antibody captured on antigen peptide chip, FcγR as analyte
T7 construct: extracellular domain; also called FcgRIIIa; CD16A
T7 sequence (P08637 17-208): as the sequence (P08637 17-208 F176V) above, with V160F counted along it
Excerpt: The expression vectors for the respective H chains were combined in a way that each of the alterations L234Y, G236W, S298A, S239D, A330L, and I332E is present in the same H chain as P329R or in the different H chain from P329R, and the expression vector GpL16-k0 for the L chain was combined with them. Antibodies of interest were expressed and prepared according to the method described in Reference Example 1. The prepared antibodies were used to assay the FcγRIIIa-binding activity. The result of assessment using P329R on the direction of FcγRIIIa recognition by L234Y, G236W, S298A, S239D, A330L, and I332E is summarized in Table 12.
Analysis of interaction between objective antibody and the FcγR was carried out using Biacore T100 (GE Healthcare). HBS-EP+ (GE Healthcare) was used as the running buffer, and the measurement temperature was set to 25° C. Chips produced by immobilizing the antigen peptide by the amine coupling method to a Series S Sencor Chip CM5 (GE Healthcare), or alternatively, chips produced by allowing preliminarily biotinylated antigen peptides to interact with and immobilize onto a Series S Sensor Chip SA (certified) (GE Healthcare) were used. Antibodies of interest were captured onto an antigen peptide-immobilized chip, and allowed to interact to each FcγR diluted with running buffer. To regenerate and repeatedly use the chip, the antibodies captured on the chip were washed off by reacting 10 mM glycine-HCl, pH 1.5.

FcγRIIIa BINDING ACTIVITY (relative) | Binder
60 relative, GpH7-A5/GpH7-B3/GpL16-k0 = 100 | B5
35 relative, GpH7-A5/GpH7-B3/GpL16-k0 = 100 | B6
84 relative, GpH7-A5/GpH7-B3/GpL16-k0 = 100 | B7
32 relative, GpH7-A5/GpH7-B3/GpL16-k0 = 100 | B8
3 relative, GpH7-A5/GpH7-B3/GpL16-k0 = 100 | B9
56 relative, GpH7-A5/GpH7-B3/GpL16-k0 = 100 | B10
123 relative, GpH7-A5/GpH7-B3/GpL16-k0 = 100 | B11
13 relative, GpH7-A5/GpH7-B3/GpL16-k0 = 100 | B12
47 relative, GpH7-A5/GpH7-B3/GpL16-k0 = 100 | B13
60 relative, GpH7-A5/GpH7-B3/GpL16-k0 = 100 | B14
11 relative, GpH7-A5/GpH7-B3/GpL16-k0 = 100 | B15
